B1: Coronatine-insensitive protein 1 (Arabidopsis thaliana (Mouse-ear cress)), O04197 (parent)
chain: MEDPDIKRCKLSCVATVDDVIEQVMTYITDPKDRDSASLVCRRWFKIDSETREHVTMALCYTATPDRLSRRFPNLRSLKLKGKPRAAMFNLIPENWGGYVTPWVTEISNNLRQLKSVHFRRMIVSDLDLDRLAKARADDLETLKLDKCSGFTTDGLLSIVTHCRKIKTLLMEESSFSEKDGKWLHELAQHNTSLEVLNFYMTEFAKISPKDLETIARNCRSLVSVKVGDFEILELVGFFKAAANLEEFCGGSLNEDIGMPEKYMNLVFPRKLCRLGLSYMGPNEMPILFPFAAQIRKLDLLYALLETEDHCTLIQKCPNLEVLETRNVIGDRGLEVLAQYCKQLKRLRIERGADEQGMEDEEGLVSQRGLIALAQGCQELEYMAVYVSDITNESLESIGTYLKNLCDFRLVLLDREERITDLPLDNGVRSLLIGCKKLRRFAFYLRQGGLTDLGLSYIGQYSPNVRWMLLGYVGESDEGLMEFSRGCPNLQKLEMRGCCFSERAIAAAVTKLPSLRYLWVQGYRASMTGQDLMQMARPYWNIELIPSRRVPEVNQQGEIREMEHPAHILAYYSLAGQRTDCPTTVRVLKEPI

Variants of: B1
Conditions: with skp1a_arath SKP1A

| Variant | effect of a mutation on the interaction |
| --- | --- |
| MEDPDIKRCKLSCVATVDDVIAQVMTYITDPKDRDSASLVCRRWFKIDSETREHVTMALCYTATPDRLSRRFPNLRSLKLKGKPRAAMFNLIPENWGGYVTPWVTEISNNLRQLKSVHFRRMIVSDLDLDRLAKARADDLETLKLDKCSGFTTDGLLSIVTHCRKIKTLLMEESSFSEKDGKWLHELAQHNTSLEVLNFYMTEFAKISPKDLETIARNCRSLVSVKVGDFEILELVGFFKAAANLEEFCGGSLNEDIGMPEKYMNLVFPRKLCRLGLSYMGPNEMPILFPFAAQIRKLDLLYALLETEDHCTLIQKCPNLEVLETRNVIGDRGLEVLAQYCKQLKRLRIERGADEQGMEDEEGLVSQRGLIALAQGCQELEYMAVYVSDITNESLESIGTYLKNLCDFRLVLLDREERITDLPLDNGVRSLLIGCKKLRRFAFYLRQGGLTDLGLSYIGQYSPNVRWMLLGYVGESDEGLMEFSRGCPNLQKLEMRGCCFSERAIAAAVTKLPSLRYLWVQGYRASMTGQDLMQMARPYWNIELIPSRRVPEVNQQGEIREMEHPAHILAYYSLAGQRTDCPTTVRVLKEPI [E22A] | decreasing interaction |

Variants of: B1
Conditions: with skp1b_arath SKP1B

| Variant | effect of a mutation on the interaction |
| --- | --- |
| MEDPDIKRCKLSCVATVDDVIAQVMTYITDPKDRDSASLVCRRWFKIDSETREHVTMALCYTATPDRLSRRFPNLRSLKLKGKPRAAMFNLIPENWGGYVTPWVTEISNNLRQLKSVHFRRMIVSDLDLDRLAKARADDLETLKLDKCSGFTTDGLLSIVTHCRKIKTLLMEESSFSEKDGKWLHELAQHNTSLEVLNFYMTEFAKISPKDLETIARNCRSLVSVKVGDFEILELVGFFKAAANLEEFCGGSLNEDIGMPEKYMNLVFPRKLCRLGLSYMGPNEMPILFPFAAQIRKLDLLYALLETEDHCTLIQKCPNLEVLETRNVIGDRGLEVLAQYCKQLKRLRIERGADEQGMEDEEGLVSQRGLIALAQGCQELEYMAVYVSDITNESLESIGTYLKNLCDFRLVLLDREERITDLPLDNGVRSLLIGCKKLRRFAFYLRQGGLTDLGLSYIGQYSPNVRWMLLGYVGESDEGLMEFSRGCPNLQKLEMRGCCFSERAIAAAVTKLPSLRYLWVQGYRASMTGQDLMQMARPYWNIELIPSRRVPEVNQQGEIREMEHPAHILAYYSLAGQRTDCPTTVRVLKEPI [E22A] | decreasing interaction |

Variants of: B1
Conditions: with cul1_arath CUL1, Q94AH6
Chain of cul1_arath CUL1, Q94AH6 (Q94AH6 whole entry): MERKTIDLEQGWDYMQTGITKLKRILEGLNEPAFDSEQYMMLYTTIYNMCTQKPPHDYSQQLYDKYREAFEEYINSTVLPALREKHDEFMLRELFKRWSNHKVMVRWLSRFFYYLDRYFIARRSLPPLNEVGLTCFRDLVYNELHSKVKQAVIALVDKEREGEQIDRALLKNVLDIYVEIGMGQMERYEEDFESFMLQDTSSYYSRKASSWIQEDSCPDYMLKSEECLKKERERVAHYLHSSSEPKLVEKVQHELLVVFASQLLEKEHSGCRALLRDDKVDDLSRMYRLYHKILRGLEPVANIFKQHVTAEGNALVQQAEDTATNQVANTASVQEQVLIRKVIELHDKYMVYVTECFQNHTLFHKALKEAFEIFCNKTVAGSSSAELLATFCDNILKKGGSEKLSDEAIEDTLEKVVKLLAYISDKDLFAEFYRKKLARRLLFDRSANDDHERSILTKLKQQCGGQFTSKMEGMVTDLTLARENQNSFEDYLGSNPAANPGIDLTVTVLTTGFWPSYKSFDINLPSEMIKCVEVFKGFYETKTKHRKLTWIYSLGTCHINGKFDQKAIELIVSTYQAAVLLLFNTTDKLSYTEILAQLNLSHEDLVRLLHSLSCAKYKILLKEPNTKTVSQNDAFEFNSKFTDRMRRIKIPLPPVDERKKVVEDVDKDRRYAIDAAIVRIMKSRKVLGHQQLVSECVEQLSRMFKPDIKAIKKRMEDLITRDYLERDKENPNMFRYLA

| Variant | effect of a mutation on the interaction |
| --- | --- |
| MEDPDIKRCKLSCVATVDDVIAQVMTYITDPKDRDSASLVCRRWFKIDSETREHVTMALCYTATPDRLSRRFPNLRSLKLKGKPRAAMFNLIPENWGGYVTPWVTEISNNLRQLKSVHFRRMIVSDLDLDRLAKARADDLETLKLDKCSGFTTDGLLSIVTHCRKIKTLLMEESSFSEKDGKWLHELAQHNTSLEVLNFYMTEFAKISPKDLETIARNCRSLVSVKVGDFEILELVGFFKAAANLEEFCGGSLNEDIGMPEKYMNLVFPRKLCRLGLSYMGPNEMPILFPFAAQIRKLDLLYALLETEDHCTLIQKCPNLEVLETRNVIGDRGLEVLAQYCKQLKRLRIERGADEQGMEDEEGLVSQRGLIALAQGCQELEYMAVYVSDITNESLESIGTYLKNLCDFRLVLLDREERITDLPLDNGVRSLLIGCKKLRRFAFYLRQGGLTDLGLSYIGQYSPNVRWMLLGYVGESDEGLMEFSRGCPNLQKLEMRGCCFSERAIAAAVTKLPSLRYLWVQGYRASMTGQDLMQMARPYWNIELIPSRRVPEVNQQGEIREMEHPAHILAYYSLAGQRTDCPTTVRVLKEPI [E22A] | decreasing interaction |

Source: IntAct's records for PubMed 12172031
